Results: patent publication US20130171133A1 (IMPERIAL INNOVATIONS, published 2013)

Experiments:
[1] = biological target: T1, FGFR1 (full length, from cell lysates; endogenous or SK-OV-3 cells transiently transfected with FGFR1 cDNA) (human, UniProt P11362 22-822); test: co-IP with OPCML Ab, immunoblot with anti-FGFR1 ECD Ab, FIG. 2A(ii)
T1 construct: whole, on cells; Tested from detergent cell lysates (co-IP, GST pull-down); also called fibroblast growth factor receptor 1
Procedure: Cell layers were washed in PBS and incubated for 30 minutes in lysis buffer (1% TritonX-100, 10 mM Tris pH8.0, 150 mM NaCl, 2.5 mM MgCl₂, 5 mM EGTA, 1 mM Na₃VO₄, 50 mM NaF and […] (Roche). Cell Lysates were then cleared by centrifugation at 13,000 rpm for 20 minutes at 4° C. and aliquots containing equal amounts of protein were incubated with the appropriate antibody before addition of secondary antibody conjugated to sepharose resin. Beads were then washed 3× with lysis buffer and eluted by heating for 5 minutes in […] of SDS sample buffer.

[2] = biological target: T2, EphA2 (from cell lysates) (human, UniProt P29317 24-976); test: co-IP and reciprocal co-IP, FIG. 17A
T2 construct: whole, on cells; Tested by co-immunoprecipitation from cell lysates

[3] = biological target: HER2 (full length, from SK-OV-3 derived cell lysates) (human, UniProt P04626 23-1255); test: cell-based or functional assay

T1 sequence (P11362 22-822): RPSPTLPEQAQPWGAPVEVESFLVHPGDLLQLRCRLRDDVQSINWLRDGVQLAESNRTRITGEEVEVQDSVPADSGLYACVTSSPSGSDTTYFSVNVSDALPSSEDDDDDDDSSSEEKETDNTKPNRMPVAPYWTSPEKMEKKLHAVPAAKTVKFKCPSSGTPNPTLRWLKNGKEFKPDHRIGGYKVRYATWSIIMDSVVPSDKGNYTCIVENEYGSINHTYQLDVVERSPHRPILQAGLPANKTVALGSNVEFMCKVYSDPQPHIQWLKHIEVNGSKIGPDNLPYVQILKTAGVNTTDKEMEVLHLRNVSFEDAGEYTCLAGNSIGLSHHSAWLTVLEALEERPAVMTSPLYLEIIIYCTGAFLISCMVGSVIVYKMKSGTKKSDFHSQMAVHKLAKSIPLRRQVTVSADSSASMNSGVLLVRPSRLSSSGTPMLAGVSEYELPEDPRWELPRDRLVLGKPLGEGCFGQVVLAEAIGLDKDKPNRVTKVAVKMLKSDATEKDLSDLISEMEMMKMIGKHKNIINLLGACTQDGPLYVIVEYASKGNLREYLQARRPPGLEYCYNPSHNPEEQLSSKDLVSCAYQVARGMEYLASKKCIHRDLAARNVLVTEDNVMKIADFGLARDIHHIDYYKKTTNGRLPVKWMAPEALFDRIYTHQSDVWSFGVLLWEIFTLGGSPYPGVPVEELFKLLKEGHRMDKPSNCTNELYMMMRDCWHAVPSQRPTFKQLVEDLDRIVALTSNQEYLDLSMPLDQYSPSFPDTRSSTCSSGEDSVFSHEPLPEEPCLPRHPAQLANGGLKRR

binding result [1]: binds | binding result [2]: binds | fold decrease in effective concentration of lapatinib required to abolish the EGF induced phospho-ERK signal, BKS2.1 against SKOBS-V1.2 [3]: 10 fold
B1: OPCML (opioid binding protein cell adhesion molecule), human, expressed in cells (stably transfected SK-OV-3 lines BKS2.1 and SKOBS-3.5) (other)
chain: GVPVRSGDATFPKAMDNVTVRQGESATLRCTIDDRVTRVAWLNRSTILYAGNDKWSIDPRVIILVNTPTQYSIMIQNVDVYDEGPYTCSVQTDNHPKTSRVHLIVQVPPQIMNISSDITVNEGSSVTLLCLAIGRPEPTVTWRHLSVKEGQGFVSEDEYLEISDIKRDQSGEYECSALNDVAAPDVRKVKITVNYPPYISKAKNTGVSVGQKGILSCEASAVPMAEFQWFKEETRLATGLDGMRIENKGRMSTLTFFNVSEKDYGNYTCVATNKLGNTNASITLYGPGAVIDGVN
modifications: GPI anchor at N322; N-linked glycosylation
notes: Full OPCML cDNA in pcDNA3.1zeo, expressed in SK-OV-3 derived lines; immunoprecipitated from Triton X-100 cell lysates; also called OBCAM; OPCML polypeptide
